Reference: PMC3907296, “How a Retrotransposon Exploits the Plant's Heat Stress Response for Its Activation”

Target: HSFA2 (Arabidopsis thaliana, UniProt O80982 1-345)
Experiment: competition EMSA; unlabeled HRE fragment, 200-fold excess, competes with labeled LTR; 10 mM Tris pH 7.5, 1 mM EDTA, 0.1 M KCl, 0.1 mM DTT, 5% glycerol, 0.01 mg/ml BSA; RT 30 min; 5% native PAGE, 0.5x TBE
Conditions: protein: recombinant; tags: C-terminal 6xHis (pET-24b, NdeI/XhoI); chain copies: 3; blunt

Chain of HSFA2 (O80982 whole entry, the tested form may be a part): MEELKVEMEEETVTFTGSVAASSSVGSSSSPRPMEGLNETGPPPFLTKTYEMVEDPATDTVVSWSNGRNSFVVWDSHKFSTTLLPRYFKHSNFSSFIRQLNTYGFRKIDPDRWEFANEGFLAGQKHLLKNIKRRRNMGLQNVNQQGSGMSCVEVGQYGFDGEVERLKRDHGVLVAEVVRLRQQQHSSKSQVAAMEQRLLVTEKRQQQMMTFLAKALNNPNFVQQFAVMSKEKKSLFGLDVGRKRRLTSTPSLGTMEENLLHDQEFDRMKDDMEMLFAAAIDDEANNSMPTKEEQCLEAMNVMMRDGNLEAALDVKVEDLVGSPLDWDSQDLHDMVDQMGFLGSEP

B1: ONSEN LTR complete HRE, 51 bp (dsDNA)
DNA 1: CCACCTCCTTAAAAGATTCTAGAAATTTTCTAGAATCATCTTCCACCTCCT
DNA 2: AGGAGGTGGAAGATGATTCTAGAAAATTTCTAGAATCTTTTAAGGAGGTGG
binding result: binds
